Measured values taken from US20220332804A1 (CSL INNOVATION, published 2022).

Assays:
Assay in all cases: SPR, mAb captured, C2 mutant analyte;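 also: Anti-C2 mAbs captured on goat anti-human IgG Biacore CM5 chips, alanine or serine C2 surface mutants flowed over at 37 °C, double-referenced sensorgrams fitted to a 1:1 binding model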
human C2 D441A = target: T1, human C2 D441A (human, UniProt P06681 21-752)
T1 sequence: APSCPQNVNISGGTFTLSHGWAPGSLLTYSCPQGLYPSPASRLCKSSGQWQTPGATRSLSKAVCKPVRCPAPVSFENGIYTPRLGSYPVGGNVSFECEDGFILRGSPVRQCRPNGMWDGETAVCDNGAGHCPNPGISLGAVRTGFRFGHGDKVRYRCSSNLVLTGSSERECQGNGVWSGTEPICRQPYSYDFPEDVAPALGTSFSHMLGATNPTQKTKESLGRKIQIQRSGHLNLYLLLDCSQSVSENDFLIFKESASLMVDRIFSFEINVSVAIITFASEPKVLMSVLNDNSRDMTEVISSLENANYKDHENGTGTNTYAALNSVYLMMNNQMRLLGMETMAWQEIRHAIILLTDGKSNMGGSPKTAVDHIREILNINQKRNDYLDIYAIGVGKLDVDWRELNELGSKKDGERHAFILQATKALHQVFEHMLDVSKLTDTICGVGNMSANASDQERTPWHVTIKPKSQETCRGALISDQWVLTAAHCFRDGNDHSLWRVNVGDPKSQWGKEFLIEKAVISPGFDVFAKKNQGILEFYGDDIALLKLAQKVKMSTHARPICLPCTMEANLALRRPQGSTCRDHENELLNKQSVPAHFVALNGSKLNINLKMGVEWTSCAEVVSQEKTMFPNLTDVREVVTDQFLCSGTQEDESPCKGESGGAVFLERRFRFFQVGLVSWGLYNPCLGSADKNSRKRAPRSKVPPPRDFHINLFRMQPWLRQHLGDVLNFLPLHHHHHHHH

human C2 T442A = target: T2, human C2 T442A (human, UniProt P06681 21-752)
T2 sequence: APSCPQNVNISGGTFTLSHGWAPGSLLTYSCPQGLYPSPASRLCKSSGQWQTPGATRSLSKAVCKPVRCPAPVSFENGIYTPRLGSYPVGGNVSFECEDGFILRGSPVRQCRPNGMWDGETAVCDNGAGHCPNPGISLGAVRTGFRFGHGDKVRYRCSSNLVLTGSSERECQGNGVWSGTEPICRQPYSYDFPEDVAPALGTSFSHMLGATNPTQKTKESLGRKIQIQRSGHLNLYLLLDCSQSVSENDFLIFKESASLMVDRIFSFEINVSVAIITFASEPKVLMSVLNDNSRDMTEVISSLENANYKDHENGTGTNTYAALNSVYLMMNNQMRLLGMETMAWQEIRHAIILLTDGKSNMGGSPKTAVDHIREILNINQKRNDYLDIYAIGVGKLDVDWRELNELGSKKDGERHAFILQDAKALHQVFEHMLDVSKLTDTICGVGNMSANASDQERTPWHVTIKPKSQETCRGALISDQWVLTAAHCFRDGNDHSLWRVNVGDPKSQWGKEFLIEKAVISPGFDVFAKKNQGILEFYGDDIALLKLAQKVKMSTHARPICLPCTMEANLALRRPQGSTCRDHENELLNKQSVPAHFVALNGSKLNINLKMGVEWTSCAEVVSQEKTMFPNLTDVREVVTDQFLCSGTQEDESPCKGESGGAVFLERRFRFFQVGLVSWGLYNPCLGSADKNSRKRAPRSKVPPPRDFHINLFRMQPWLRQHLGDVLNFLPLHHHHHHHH

human C2 T317A = target: T3, human C2 T317A (human, UniProt P06681 21-752)
T3 sequence: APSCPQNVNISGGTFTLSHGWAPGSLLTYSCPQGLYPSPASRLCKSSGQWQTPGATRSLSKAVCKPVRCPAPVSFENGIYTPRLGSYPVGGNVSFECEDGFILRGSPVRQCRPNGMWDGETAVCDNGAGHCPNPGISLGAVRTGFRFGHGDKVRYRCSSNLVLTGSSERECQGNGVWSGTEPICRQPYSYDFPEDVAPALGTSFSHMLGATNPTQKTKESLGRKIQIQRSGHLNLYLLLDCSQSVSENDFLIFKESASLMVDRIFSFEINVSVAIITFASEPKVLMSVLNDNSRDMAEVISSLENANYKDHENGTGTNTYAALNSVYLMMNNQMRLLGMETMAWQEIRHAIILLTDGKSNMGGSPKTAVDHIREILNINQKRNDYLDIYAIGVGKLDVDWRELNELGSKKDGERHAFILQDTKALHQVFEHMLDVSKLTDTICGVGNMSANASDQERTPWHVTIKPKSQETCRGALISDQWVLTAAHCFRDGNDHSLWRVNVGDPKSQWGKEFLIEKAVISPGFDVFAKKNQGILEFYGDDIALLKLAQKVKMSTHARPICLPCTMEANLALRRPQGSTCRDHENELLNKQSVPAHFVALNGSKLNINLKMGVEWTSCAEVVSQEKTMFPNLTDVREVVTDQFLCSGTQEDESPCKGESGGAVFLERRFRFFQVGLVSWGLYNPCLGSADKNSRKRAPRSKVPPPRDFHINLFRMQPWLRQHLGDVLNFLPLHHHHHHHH

human C2 H451A = target: T4, human C2 H451A (human, UniProt P06681 21-752)
T4 sequence: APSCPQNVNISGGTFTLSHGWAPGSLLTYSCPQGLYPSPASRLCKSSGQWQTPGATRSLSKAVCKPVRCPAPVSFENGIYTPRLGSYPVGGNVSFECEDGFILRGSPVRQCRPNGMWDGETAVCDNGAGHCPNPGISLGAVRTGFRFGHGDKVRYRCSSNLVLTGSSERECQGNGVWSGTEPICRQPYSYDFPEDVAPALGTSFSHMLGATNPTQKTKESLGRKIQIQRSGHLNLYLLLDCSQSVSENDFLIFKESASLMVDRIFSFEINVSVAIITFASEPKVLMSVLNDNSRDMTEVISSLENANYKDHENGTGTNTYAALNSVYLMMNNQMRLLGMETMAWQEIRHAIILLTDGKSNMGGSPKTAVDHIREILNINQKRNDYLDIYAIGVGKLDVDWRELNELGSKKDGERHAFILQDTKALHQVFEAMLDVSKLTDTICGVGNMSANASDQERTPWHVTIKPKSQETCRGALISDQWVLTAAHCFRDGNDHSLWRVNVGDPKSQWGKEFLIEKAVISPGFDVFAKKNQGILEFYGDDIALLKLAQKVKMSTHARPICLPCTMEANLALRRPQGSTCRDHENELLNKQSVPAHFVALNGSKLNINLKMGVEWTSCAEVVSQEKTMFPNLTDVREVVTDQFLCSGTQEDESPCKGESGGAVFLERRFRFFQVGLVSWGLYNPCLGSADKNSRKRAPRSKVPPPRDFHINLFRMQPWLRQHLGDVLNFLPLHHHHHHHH

Kd (human C2 D441A): 51.5 nM
Kd (human C2 T442A): 70.7 nM
Kd (human C2 T317A): 27.9 nM
Kd (human C2 H451A): 138 nM
B1: RF16-214 (antibody, V domains shown)
VH: EVQLLESGGGLVQPGGSLRLSCAASGFTFSWYQMMWVRQAPGKGLEWVSRIYPSGGGTAYADSVKGRFTISRDNSKNTLYLQMNSLRAEDTAVYYCARDAGYGDNWGQGTLVTVSS
VL: QSALTQPPSVSVSPGQTASITCSGDKLGEKYASWYQQKAGQSPVMVIYQDRKRPSGIPERFSGSNSGNTATLTISGTQAMDEADYYCQAWDTRAVVFGGGTKLTVLG
